We go through one protein from article PMC9320952 (Molecular Microbiology, 2022).

This series concerns the molecule itself. Put plainly: negative staining electron microscopy.

B1: SepF (purified, freed from MBP-SepF by factor Xa) (natural protein, B. subtilis, UniProt O31728 1-151, looked up)
chain: MSMKNKLKNFFSMEDEEYEYEYIETERESHEEHEQKEKPAYNGNKPAGKQNVVSLQSVQKSSKVVLSEPRVYAEAQEIADHLKNRRAVVVNLQRIQHDQAKRIVDFLSGTVYAIGGDIQRIGSDIFLCTPDNVDVSGTISELISEDEHQRW
For B1, the binding result was “binds”.
